From patent US20250376511A1 (Sanofi, published 2025) come the findings set out here.

Test [1] addresses T1, Human active C1s (Complement Technology) (human, UniProt P09871 16-688).
T1 sequence: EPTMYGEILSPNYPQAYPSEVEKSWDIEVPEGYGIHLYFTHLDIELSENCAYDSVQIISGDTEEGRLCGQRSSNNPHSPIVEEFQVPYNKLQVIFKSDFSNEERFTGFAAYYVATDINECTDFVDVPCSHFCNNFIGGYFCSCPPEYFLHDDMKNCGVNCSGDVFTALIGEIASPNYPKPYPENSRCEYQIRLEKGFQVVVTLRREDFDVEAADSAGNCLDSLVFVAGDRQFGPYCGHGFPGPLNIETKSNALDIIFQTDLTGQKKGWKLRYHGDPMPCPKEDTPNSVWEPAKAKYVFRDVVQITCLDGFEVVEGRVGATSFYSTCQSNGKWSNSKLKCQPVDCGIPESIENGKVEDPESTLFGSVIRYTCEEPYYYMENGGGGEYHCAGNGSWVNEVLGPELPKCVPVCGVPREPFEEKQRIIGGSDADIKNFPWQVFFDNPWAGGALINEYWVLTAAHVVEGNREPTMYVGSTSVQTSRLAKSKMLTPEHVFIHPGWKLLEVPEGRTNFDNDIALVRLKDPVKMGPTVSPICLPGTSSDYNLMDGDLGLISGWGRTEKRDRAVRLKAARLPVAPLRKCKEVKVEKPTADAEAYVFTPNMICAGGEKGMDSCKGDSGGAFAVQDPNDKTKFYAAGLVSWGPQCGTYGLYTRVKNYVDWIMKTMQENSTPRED
In words: cell-based or functional assay.

The target of test [2] is T1, Human active C1s (Complement Technology). In words: SPRi Carterra LSA, antibody captured on protein A/G, human active C1s as analyte, 25 C, 1:1 fit. The method, then: C1s binding using surface plasmon resonance (SPRi): Analysis of active C1s binding was performed on a Carterra LSA SPRi instrument at 25° C. Protein A/G (Sigma) diluted in 25 mM MES pH 6.0, 0.05% Tween-20 running buffer was covalently immobilized to an HC200M sensor chip using amine coupling. Antibodies were diluted to 0.2 μg/mL in HBS-EP+ buffer and printed in duplicate to the protein A/G surface in the capture 96-array format for 5 min followed by a 1 min baseline in buffer. Human active C1s (Complement Technology) was serially diluted […] from 1 μM to 0.781 nM in running buffer and injected over the captured antibodies for 5 min with a 5 min dissociation time. The surface was regenerated with 10 mM glycine pH 1.5 with two 30 sec injections. Sensorgrams were processed with the Carterra® K.I.T. Inspection Tool and fit to a 1:1 binding model to obtain kinetic constants.
Three variants were selected as viable engineered alternatives to the wild-type anti-aC1s sequence: D32E, D32S, and D32Y. The three variants were expressed as bivalent monospecific anti-aC1s antibodies with human IgG1 and their affinity for aC1s tested by surface plasmon resonance (Table 5).

The target is the same in test [3]. In words: cell-based or functional assay. This is another data set of the same source.
Test [4] has the same target. In words: cell-based or functional assay. This is another data set of the same source.
For test [5], the target named is T2, His-tagged recombinant human TfR (produced in-house) (human, UniProt P02786 89-760).
T2 construct: also called hTfR; transferrin receptor 1
Kind of test: SPR Biacore T200, His-tagged human TfR captured on anti-His, antibody as analyte, 25 C, 1:1 fit. The procedure:
(§1) TfR and C1s binding using surface plasmon resonance (SPR): Analysis of antibody binding to TfR was performed on a Biacore™ T200 instrument using anti-His capture at 25° C. Anti-His (Qiagen) was buffer exchanged into PBS pH 7.2, diluted to 25 μg/mL in 10 mM sodium acetate pH 4.0 and directly immobilized to a series S CM5 chip to a surface density of ˜10,000 RU using the amine coupling kit provided by Cytiva. His-tagged recombinant human TfR (produced in-house) was diluted in HBS-EP+ pH 7.4 running buffer (10 mM HEPES pH 7.4, 150 mM NaCl, 3 mM EDTA, 0.05% surfactant P20) and injected for 5 sec at 20 μL/min flowrate to obtain capture level of 20 RU. Antibodies were serially diluted 2-fold from 90 to 5.625 nM in running buffer and injected over the captured TfR for 3 min followed by 9 min dissociation in buffer at 30 μL/min. Each cycle was regenerated with 10 mM glycine pH 1.5. To measure C1s binding, anti-human Fc (Jackson) was directly immobilized to a CM5 chip using amine chemistry. Antibodies were diluted to 2.5 μg/mL in HBS-EP+ pH 7.4 and captured to the chip for 15 sec at 20 μL/min flowrate. Human active C1s (Complement Technology) was serially diluted 2-fold from 20 to 0.625 nM in running buffer and injected over the captured antibodies for 180 sec at 50 μL/min followed by 9 min dissociation in buffer. The bound complex was removed from the chip each cycle with 40 mM HCl and 0.85% phosphoric acid. Sensorgrams were processed using the Biacore™ Insight software and fit to a 1:1 binding model to obtain kinetic constants.
(§2) The six bispecific anti-aC1s/anti-TfR antibodies were first tested for their affinity for both TfR and aC1s via surface plasmon resonance (SPR) (Table 2).

For test [6], the target named is T1, Human active C1s (Complement Technology). Kind of test: SPR Biacore T200, antibody captured on anti-human Fc, human active C1s as analyte, 1:1 fit. The method, then:
as §1, §2

Test [7] shares this target. Kind of test: cell-based or functional assay. This is another data set of the same source.

Where two headings read alike, the source gives them in different places.

T2 sequence (P02786 89-760 limits assumed): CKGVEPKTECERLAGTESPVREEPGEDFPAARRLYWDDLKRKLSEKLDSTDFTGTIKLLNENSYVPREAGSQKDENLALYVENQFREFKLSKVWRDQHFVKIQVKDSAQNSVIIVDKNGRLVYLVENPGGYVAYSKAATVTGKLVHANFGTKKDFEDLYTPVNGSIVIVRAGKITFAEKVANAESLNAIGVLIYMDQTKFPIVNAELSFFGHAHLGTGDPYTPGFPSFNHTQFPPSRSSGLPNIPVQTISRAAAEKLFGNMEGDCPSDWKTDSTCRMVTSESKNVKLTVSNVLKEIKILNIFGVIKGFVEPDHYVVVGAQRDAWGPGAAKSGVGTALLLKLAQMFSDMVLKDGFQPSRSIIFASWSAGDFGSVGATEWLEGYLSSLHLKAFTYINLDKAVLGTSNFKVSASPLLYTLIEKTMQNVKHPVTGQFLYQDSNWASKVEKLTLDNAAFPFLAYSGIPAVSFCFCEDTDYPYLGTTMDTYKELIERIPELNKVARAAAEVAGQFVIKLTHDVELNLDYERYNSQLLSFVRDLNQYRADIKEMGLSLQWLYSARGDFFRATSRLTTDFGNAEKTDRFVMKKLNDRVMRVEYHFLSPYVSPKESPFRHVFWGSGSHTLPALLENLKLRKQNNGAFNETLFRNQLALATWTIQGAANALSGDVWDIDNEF

B1: SAR445088 (antibody, V domains shown)
VH: QVQLVQSGAEVKKPGASVKLSCTASGFNIKDDYIHWVKQAPGQGLEWIGRIDPADGHTKYAPKFQVKVTITADTSTSTAYLELSSLRSEDTAVYYCARYGYGREVFDYWGQGTTVTVSS
VL: DIVLTQSPDSLAVSLGERATISCKASQSVDYDGDSYMNWYQQKPGQPPKILIYDASNLESGIPARFSGSGSGTDFTLTISSLEPEDFAIYYCQQSNEDPWTFGGGTKVEIK
modifications: sulfated tyrosine (Y36) on the light chain
notes: Bivalent monospecific anti-aC1s antibody; also called BIVV020; the wild-type antibody
With B1, in test [1], the “IC50, Wieslab Complement Pathway Assay (classical pathway, 1% NHS)” value (shortened to “IC50 … (classical pathway, 1% NHS)”) was determined as 1.07 µg/mL. For the same molecule, in test [2], the affinity, expressed as Kd, was 2.5 nM; the koff was 0.0033 s⁻¹; the kon is 1.3e+06 M⁻¹ s⁻¹. In addition, the “IC50 … (classical pathway, 1% NHS)” value in test [3] was determined as 0.77 µg/mL. Further, in test [4], the “IC50, Wieslab Complement Pathway Assay (batch 1)” value is 0.45 µg/mL and the “IC50, Wieslab Complement Pathway Assay (batch 2)” value amounted to 0.63 µg/mL.

B2: aC1s_088 IgG1-dK (antibody, V domains shown)
VH: QVQLVQSGAEVKKPGASVKLSCTASGFNIKDDYIHWVKQAPGQGLEWIGRIDPADGHTKYAPKFQVKVTITADTSTSTAYLELSSLRSEDTAVYYCARYGYGREVFDYWGQGTTVTVSS
VL: DIVLTQSPDSLAVSLGERATISCKASQSVDYDGDSYMNWYQQKPGQPPKILIYDASNLESGIPARFSGSGSGTDFTLTISSLEPEDFAIYYCQQSNEDPWTFGGGTKVEIK
Take B2: the “IC50 … (classical pathway, 1% NHS)” value in test [1] is 0.84 µg/mL.

B3: aC1s_D32E IgG1-dK (antibody, V domains shown)
VH: QVQLVQSGAEVKKPGASVKLSCTASGFNIKDDYIHWVKQAPGQGLEWIGRIDPADGHTKYAPKFQVKVTITADTSTSTAYLELSSLRSEDTAVYYCARYGYGREVFDYWGQGTTVTVSS
VL: DIVLTQSPDSLAVSLGERATISCKASQSVDYEGDSYMNWYQQKPGQPPKILIYDASNLESGIPARFSGSGSGTDFTLTISSLEPEDFAIYYCQQSNEDPWTFGGGTKVEIK
modifications: Y36 sulfation: Yes
On to B3, for which the “IC50 … (classical pathway, 1% NHS)” value in test [1] worked out at 1.36 µg/mL. In test [2], this molecule came in with a Kd of 2.5 nM, a koff of 0.0032 s⁻¹ and a kon of 1.3e+06 M⁻¹ s⁻¹.

B4: aC1s_088 × 531v25 IgG1-NNAS/dK (bispecific antibody, V domains shown)
VH 1: QVQLVQSGAEVKKPGASVKLSCTASGFNIKDDYIHWVKEAPGQGLEWIGRIDPADGHTKYAPKFQVKVTITADTSTSTAYLELSSLRSEDTAVYYCARYGYGREVFDYWGQGTTVTVSS
VL 1: DIVLTQSPDSLAVSLGERATISCKASQSVDYDGDSYMNWYQKKPGQPPKILIYDASNLESGIPARFSGSGSGTDFTLTISSLEPEDFAIYYCQQSNEDPWTFGGGTKVEIK
VH 2: QVQLVQSGAEVKKPGASVKVSCKASGYTFTRYYLNWVRKAPGQGLEWIGMIDPSVSETHYAQKFQGRATLTVDKSTSTAYMELSSLRSEDTAVYYCSQIRLPYYYAMDSWGQGTTVTVSS
VL 2: DIQMTQSPSSLSASVGDRVTITCRASQDISSFLNWYQEKPGKAPKLLIYYTSRLQSGVPSRFSGSGSGTDYTLTISSLQPEDFATYYCQQGNTLPRTFGGGTKVEIK
notes: IgG1-NNAS Fc, dK, with charge pairing mutations; The starred variable domains are used, as for m5
Turning to B4, in test [5], the Kd was found to be 24.6 nM, the koff worked out at 0.0049 s⁻¹ and the kon was 199000 M⁻¹ s⁻¹. In test [6], binding was put at a Kd of 0.68 nM, the koff turned out to be 0.00285 s⁻¹ and the kon came out at 4.22e+06 M⁻¹ s⁻¹. In addition, in test [3], the “IC50 … (classical pathway, 1% NHS)” value worked out at 2.02 µg/mL. For the same molecule, the “IC50, C3d deposition on neurons in iPSC tricultures with serum” value in test [7] is 29.7 µg/mL.

B5: aC1s_088 × 531v25.v6 IgG1-NNAS/dK (bispecific antibody, V domains shown)
VH 1: QVQLVQSGAEVKKPGASVKLSCTASGFNIKDDYIHWVKEAPGQGLEWIGRIDPADGHTKYAPKFQVKVTITADTSTSTAYLELSSLRSEDTAVYYCARYGYGREVFDYWGQGTTVTVSS
VL 1: DIVLTQSPDSLAVSLGERATISCKASQSVDYDGDSYMNWYQKKPGQPPKILIYDASNLESGIPARFSGSGSGTDFTLTISSLEPEDFAIYYCQQSNEDPWTFGGGTKVEIK
VH 2: QVQLVQSGAEVKKPGASVKVSCKASGYTFTRYYLNWVRKAPGQGLEWIGMIDPSVSETHYAQKFQGRATLTVDKSTSTAYMELSSLRSEDTAVYYCSQIRLPYYYAMDSWGQGTTVTVSS
VL 2: DIQMTQSPSSLSASVGDRVTITCRASQDIESFLNWYQEKPGKAPKLLIYYTSRLQSGVPSRFSGSGSGTDYTLTISSLQPEDFATYYCQQGNTLPRTFGGGTKVEIK
notes: as for B4
On to B5, for which, in test [5], the Kd came out at 20.3 nM, the koff turned out to be 0.00332 s⁻¹ and the kon came to 164000 M⁻¹ s⁻¹. In test [6], this molecule gave a Kd of 0.69 nM, a koff of 0.00272 s⁻¹ and a kon of 3.96e+06 M⁻¹ s⁻¹. Further, in test [3], the “IC50 … (classical pathway, 1% NHS)” value is 1.78 µg/mL. Also, the “IC50, C3d deposition on neurons in iPSC tricultures with serum” value in test [7] worked out at 12.8 µg/mL.

B6: aC1s_D32S IgG1-dK (antibody, V domains shown)
VH: QVQLVQSGAEVKKPGASVKLSCTASGFNIKDDYIHWVKQAPGQGLEWIGRIDPADGHTKYAPKFQVKVTITADTSTSTAYLELSSLRSEDTAVYYCARYGYGREVFDYWGQGTTVTVSS
VL: DIVLTQSPDSLAVSLGERATISCKASQSVDYSGDSYMNWYQQKPGQPPKILIYDASNLESGIPARFSGSGSGTDFTLTISSLEPEDFAIYYCQQSNEDPWTFGGGTKVEIK
notes: Bivalent monospecific human IgG1
Consider B6, for which the “IC50 … (classical pathway, 1% NHS)” value in test [1] is 10.7 µg/mL. In test [2], this molecule returned a Kd of 7.3 nM, a koff of 0.0065 s⁻¹ and a kon of 890000 M⁻¹ s⁻¹.

Usually Kd stands for a measure of binding affinity in units of concentration. As usually defined, the koff is the first-order rate constant of dissociation. As a reminder, the kon is the second-order rate constant of association.
